These results are taken from PMC6642826.

One assay addresses RelA (Mus musculus) (UniProt Q04207). To be noted: cited from earlier work.
Assay [1] addresses RelA homodimer as used for SPR (murine) (UniProt Q04207). Description: SPR.
Assay [2] concerns the target Oregon Green 488-labelled RelA dimerization domain homodimer (murine) (UniProt Q04207). Description: fluorescence polarisation.
For assay [3], the target named is RelA-p50 heterodimer as used for SPR (murine) (UniProt Q04207). Nature of the assay: SPR. (In general: SPR reads the build-up and loss of mass on a sensor chip optically.)
Assay [4] concerns the target Oregon Green 488-labelled RelA(19–321)-p50(39–350) heterodimer (murine) (UniProt Q04207). Description: fluorescence polarisation.
Assay [5] addresses Oregon Green 488-labelled p50(39–350)-cRel(1–294) heterodimer (murine) (UniProt P25799). Nature of the assay: fluorescence polarisation. (Polarisation of emitted light reports the rotation of a fluorescent probe.)
Assay [6] has as its target labelled p50(39–350) homodimer (murine) (UniProt P25799). Nature of the assay: fluorescence polarisation.

For the molecule RelA (from UniProt Q04207), the Kd – broadly, the free concentration of one partner at which half of the binding sites on the other are occupied at equilibrium, for simple one-to-one binding – with RelA (Mus musculus) was 800000 pM.
Take “IKBα(67–287) (from UniProt P25963 67-287) (domain or fragment)”: the Kd in assay [1] came to 54 pM; in assay [2], 280 pM.
IKBβ(50–359) (domain or fragment): the Kd amounted to 1100 pM in assay [3]; 70 pM in assay [1]; 890 pM in assay [4]; 72 pM in assay [2]; 920 pM in assay [5].

B1: (His)6-IKBε(40–364) (domain or fragment)
chain: SSQSGCPQPWRHAPETHKEPEKEDADGERADSTYASSSLTESFPLLERPEAKDPSPPAPGSPLPPAGVLSPQQLEALTYISEDGDTLLHLAVIHEAPSVLFCCLAFLPQEVLDIQNNLYQTALHLAVHLDQPDVVRALVLKGASRILQDQHGDTALHVACRRQNLACACCLLEEQPEPGRQLSHPLDLQLKNWQGLACLHIATLQRNQPLIELLLQNGADIDVQEGTSGKTALHLAVETQERSLVQFLLQAGARVDARMLNGCTPLHLAAGRGLNSISSTLCEAGADSLLLNVEDETPQDLAEDLLSYLPFDDLKISGKPLLCTD
Regarding B1, the Kd in assay [6] was determined as 810 pM.
